Assay: yeast display, Sf9 membrane polyspecificity reagent, FACS + sequencing; frameworks hold sequencing errors
Procedure, shortened: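 After 36–48 hours of galactose induction, yeast (Saccharomyces cerevisiae BJ5465) displaying a synthetic nanobody library were stained at 4 °C for 1 hour with 10% biotinylated, detergent-solubilized Sf9 membrane reagent. Streptavidin microbeads enriched the stained cells before FACS sorting into low and high (top ~1%) gates on anti-HA and streptavidin fluorescence. Each clone's polyreactivity label reflects its gate of origin.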

| Sequence | polyreactivity (PSR sort gate) |
| --- | --- |
| QVQLGDSGGGLVQAGGRLRLSCAASGRTIRPYTMGWYRQAPGNERALVAAITSGGGSTYYADSVKGRFTISRDNAKNTVTLQMHSLKPDDTAVYYCAAPRRERWIDVNQHYSWGQGTQVTVSS | low polyreactivity |
| QVQLGDSGGGLVQAGGSLRLSCAASGFNFRTNTMGWYRQEPGKERELVAAITRSGGSTYYADSVKGRFTISSDNAKYTVYLQMNSLKPEDSAVYYCAKEYRRVVADFGYWGQGTQVTVSS | high polyreactivity |
| QVQLGDSGGGLVQAGGSLRLSCAASGRIFYGNAMGWYRQAPWKERELVAAISSGGGSTYYADSVKGRFTISRDNAKNTVYLQMNSLKPEDNAVYYCAADPVPRFPGTGGYWGQGTQVTVSS | low polyreactivity |
| QVQLGDSGGGLVQAGGSLRLSCAASGSIFNKYAMGWYRQAPGKEREFVAPITQGGGRTYYADSVKGRFTISRDNAKNNVYLQMNSLKPEDTAVYYCIYNFNYPYYRYGYWGQGTQVTVSS | high polyreactivity |
| QVQLGESGGGFVQAGGSLRLSCAASGSTFSYNAMGWYIQASGKESEFVAAISSSGGRTYYADSVKWRFTISRDYEKNTVYLQMKSLKPEDTAVYYCPAKSRLPTQGLGMYYWGKGTQVTVSS | high polyreactivity |
| QVQLGESGGGLLQAGGSLRLSCAASGRSFSVNFMGWYRQAPGKDTELVAAIDTSGGSTYYADSVKGRFTISRDNAKNTVYLQMNCLNPEHTAVYVCASGFYGYRSSCYWGQGTQVTVSS | low polyreactivity |
| QVQLGESGGGLVQAGGILRLSCAASGSIFARYAMGWYRQPPGKERELVAAISSNSASTYYADSVKGRFTISRDNAKNTVYLQMNCLIPEDTAVYYCATAYRSYWLNDYWGQGTQVTVSS | low polyreactivity |
| QVQLGESGGGLVQAGGSLRLICAASGRTIRQYAMGRYRQAPGKERELVAAIDSGGSTYYADSVKGRFTISRDNAKNTVYLQMNSLKPEYTAVYYCAKGPSWKYYSYTLDYWGQGTQVTVSS | low polyreactivity |
| QVQLGESGGGLVQAGGSLRLSCAASGFIFSYNAMGWYRQAPWKERELVAAISWRGGSTYYADSVKGRFTISRDNAKNTVYLQMNSLKPEDTAVYYCAAYLWRLWPSGYYYWGQGTQVTVSS | high polyreactivity |
| QVQLGESGGGLVQAGGSLRLSCAASGFIFYVYAMGWYRQAPGKERELVAAISWSGDRTYYADSVKGRFTISRDNAKNTVYLQINSLKPEDTAVYYCAVERSVYSYYYWGQGTQVTVSS | high polyreactivity |
| QVQLGESGGGLVQAGGSLRLSCAASGFPFQGNAMGWSRQAPGKERELLAAISYDGGSSYYADSVKGRFTISRDNAKNTVYLQMNSLKPEDTAVYYCAAYVVTWYYYWGQGTQVTLSS | high polyreactivity |
| QVQLGESGGGLVQAGGSLRLSCAASGFTFAYYAMGWYRQAPGKERELVAAISERGGSTYYADSVKGRFTISRDNAKNTVYLQMNILKPEDTAVYYCARTFWDYPWYQSSYYSWGQGTQVTLSS | low polyreactivity |
| QVQLGESGGGLVQAGGSLRLSCAASGFTFPVYAMGWYRQAPGKERELVAAISTSAGSTYYADSVKGRFTISRDNAKNTVYLQMNSLKPEDTAVYYCAARRRAFGSTYNYWGQGTQVTVSS | high polyreactivity |
| QVQLGESGGGLVQAGGSLRLSCAASGGIINYYAMGWYRQAPGKEWELVAAITSAGSTYADSVKGRFTISRDNAKNTVYLQMNSLKPDDSAVYYCNAVGFVLKVGYYLIGYAKWYDYWGQGTHVTVSS | low polyreactivity |
| QVQLGESGGGLVQAGGSLRLSCAASGIIFRYYAMGWYRQAPGKERELVAAISSSGVSTYYADSVKGRFTISRDNAQNTVYLQMNSLKPEDTAVYYCAAVTTWRMDYWGQGTQVTVSS | high polyreactivity |
| QVQLGESGGGLVQAGGSLRLSCAASGITFRWYAMGWYRQAPGKERELVAAITSVDSTDYADSVKGRFTISRDNAKNTVYLQMNSLKPEDTAVYYCAAQPYDWFYYYYVIFPHYEYWGQGTQVTVSS | low polyreactivity |
| QVQLGESGGGLVQAGGSLRLSCAASGNIFYANAMGWSRQAPGTERELLAAISGSGGSTYADSVKGRFTISRDNAKNTVYLQMNSLKPVDTAVYYCNASVLDAIFYKSVGYDYWGQGTQVTVSS | low polyreactivity |
